Measurements reported in patent US8614103B2, “Compositions and methods for treating sphingosine-1-phosphate (S1P) related ocular diseases and conditions” (Lpath, Inc., priority 2006, dated 2013).

Experiments:
[1] = Competitive ELISA for specificity / cross-reactivity against bioactive lipids; assay type: binding; conditions: for cross-reactivity to sphingosylphosphorylcholine (SPC): competitor SPC
Method: Screening of serum and cell supernatant for S1P-specific antibodies was by direct ELISA using a thiolated SIP analog as the antigen. A standard ELISA was performed, as described below, except that 50 ul of sample (serum or cell supernatant) was diluted with an equal volume of PBS/0.1% Tween-20 (PBST) during the primary incubation. ELISAs were performed in 96-well high binding ELISA plates (Costar) coated with 0.1 μg of chemically-synthesized thiolated-S1P conjugated to BSA in binding buffer (33.6 mM Na2CO3, 100 mM NaHCO3; pH 9.5). The thiolated-S1P-BSA was incubated at 37° C. for 1 hr. at 4° C. overnight in the ELISA plate wells. The plates were then washed four times with PBS (137 mM NaCl, 2.68 mM KCl, 10.14 mM Na2HPO4, 1.76 mM KH2PO4; pH 7.4) and blocked with PBST for 1 hr. at room temperature. For the primary incubation step, 75 uL of the sample (containing the S1P to be measured), was incubated with 25 uL of 0.1 ug/mL anti-S1P mAb diluted in PBST and added to a well of the ELISA plate. Each sample was performed in triplicate wells. Following a 1 hr. incubation at room temperature, the ELISA plates were washed four times with PBS and incubated with 100 ul per well of 0.1 ug/mL HRP goat anti-mouse secondary (Jackson Immunoresearch) for 1 hr. at room temperature. Plates were then washed four times with PBS and exposed to tetramethylbenzidine (Sigma) for 1-10 minutes. The detection reaction was stopped by the addition of an equal volume of 1M H2SO4. Optical density of the samples was determined by measurement at 450 nm using an EL-X-800 ELISA plate reader (Bio-Tech).
For cross reactivity, a competitive ELISA was performed as described above, except for the following alterations. The primary incubation consisted of the competitor (S1P, SPH, LPA, etc.) and a biotin-conjugated anti-S1P mAb. Biotinylation of the purified monoclonal antibody was performed using the EZ-Link Sulfo-NHS-Biotinylation kit (Pierce). Biotin incorporation was determined as per kit protocol and ranged from 7 to 11 biotin molecules per antibody. The competitor was prepared as follows: lipid stocks were sonicated and dried under argon before reconstitution in DPBS/BSA [1 mg/ml fatty acid free BSA (Calbiochem) in DPBS (Invitrogen 14040-133)]. Purified anti-S1P mAb was diluted as necessary in PBS/0.5% Triton X-100. Competitor and antibody solutions were mixed together so to generate 3 parts competitor to 1 part antibody. A HRP-conjugated streptavidin secondary antibody (Jackson Immunoresearch) was used to generate signal.
The humanized variants were tested for specificity in a competitive ELISA assay (FIG. 1) against S1P and several other biolipids. This assay has the added benefit to allow for epitope mapping.

HUVECs = test: HUVEC migration, Matrigel chemoinvasion assay; assay type: cell-based, human; conditions: co-incubation with S1P
Method: FIG. 5 has two panels, A and B. In panel A, S1P is shown to promote neovascularization through induction of HUVECs tube formation and migration, which is reduced by SPHINGOMAB. […] The number of cells that migrated to the Matrigel membrane were counted in five independent fields.
Experiments were performed as described by Visentin et al. (Cancer Cell 2006 March; 9(3):225-38).

[2] = tested on: VEGF- or bFGF-induced neovascularization; test: In vivo Matrigel plug assay, VEGF or bFGF plugs, neovascularization; parameters: species or system mouse; conditions: 25 mg/kg i.p. every 48 hrs, 10 days
Method: Endogenous S1P from the blood and surrounding tissue could supply a wound with pro-angiogenic stimuli. The ability of SPHINGOMAB to reduce endogenous S1P in a wound was investigated. Optimally stimulated plugs (Matrigel supplemented with 0.5 μg/mL bFGF or […] VEGF) were implanted into mice. Mice received i.p. injections of 25 mg/kg SPHINGOMAB or saline every 48 hrs starting 1 day prior to Matrigel implantation. Each treatment group (Matrigel, Matrigel plus GF or Matrigel plus GF and administered SPHINGOMAB) consisted of a minimum of 6 mice. After 10 days, the mice were treated with heparin, injected with Isolectin B4-FITC, the plugs excised, embedded in OCT freezing medium and sectioned.

perivascular fibrosis = test: Permanent myocardial infarction model, perivascular fibrosis; assay type: in vivo, mouse; conditions: 25 mg/kg from 48 hrs after surgery; two weeks
Method: Studies evaluated the efficacy of SPHINGOMAB to reduce cardiac scar formation after permanent myocardial infarction (MI) via ligation of the left descending coronary artery in mice. Systemic administration of 25 mg/kg SPHINGOMAB or saline was initiated 48 hrs after surgery. Antibody administration at 48 hr. was chosen to allow normal, reparative scar formation to occur during the early remodeling phase and permit beneficial, S1P-stimulated angiogenesis immediately after the MI. Two weeks after the infarct, mice were sacrificed and fibrosis was accessed by Masson's trichrome staining of the cardiac tissue. […] As a control for any non-specific wound-healing responses, sham animals underwent thoracotomy without coronary artery ligation (FIG. 7E).

[3] = tested on: ovarian cancer (OVCAR3) cells; test: S1P-induced IL-8 release; assay type: cell-based, human; conditions: 1 uM S1P; 22 hours
Method: FIG. 12 has two panels, A and B, that show data from in vitro cell assays performed using several humanized monoclonal antibody variants. […] As described in Example 16, below, SKOV3 cells were treated for 48 hr. with 500 nM Taxol (Tax) in the presence or absence of 500 nM S1P with huMAbHCLC3 (309), huMAbHCLC5 (308), muMAb S1P (muMAb), or non-specific IgG1 (NS) at a concentration of 1 μg/mL. Values represent means±SEM (n=3) with triplicates run for each data point. “NT” means not treated, and “Veh” stans for vehicle only. […] In the experiments described in detail in Example 16, below, 100,000 OVCAR3 cells/well were starved overnight and 1 uM S1P was added to the culture media alone or pre-incubated with 1 ug/ml of non-specific antibody (NS), pATH201+pATH309 (LC3), pATH201+pATH308 (LC5), pATH207+pATH309 (cysLC3), pATH207+pATH308 (cysLC5), and 0.1 ug/ml (M0.1), 1 ug/ml (M1) or 10 ug/ml (M10) of anti-S1P murine antibody. After 22 hours of incubation, cell supernatants were collected and IL-8 secretion was measured by ELISA using an R&D system Quantikine human CXCL8/IL-8 kit. In the figure “NT” refers to non-treated cells.
In parallel, all the variants were tested for their effects on S1P-induced cytokine release from cancer cells. S1P is known to elicit significant release of IL-8 into the cell-conditioned media from cancer cells.

B1: LT1002: murine monoclonal antibody to S1P, IgG1 kappa, hybridoma clone 306D326.26 (antibody, listed as Mus sp., V domains shown)
VH: QAHLQQSDAELVKPGASVKISCKVSGFIFIDHTIHWMKQRPEQGLEWIGCISPRHDITKYNEMFRGKATLTADKSSTTAYIQVNSLTFEDSAVYFCARGGFYGSTIWFDFWGQGTTLTVS
VL: ETTVTQSPASLSMAIGEKVTIRCITTTDIDDDMNWFQQKPGEPPNLLISEGNILRPGVPSRFSSSGYGTDFLFTIENMLSEDVADYYCLQSDNLPFTFGSGTKLEIK
[1]; Table 7
  Specificity (ELISA): High
[1]; competitor C1P, listed as anti-S1P mAb
  recognition of ceramide-1-phosphate (C1P): no antibody binding was observed
[1]; competitor DH-S1P
  cross-reactivity to dihydrosphingosine-1-phosphate (DH-S1P): did cross react
[1]; competitor LPA, listed as anti-S1P mAb
  cross-reactivity to lysophosphatidic acid (LPA): exhibited no binding
[1]; listed as SPHINGOMAB
  cross-reactivity to sphingosylphosphorylcholine (SPC): to a lesser extent
[1]; listed as anti-S1P mAb
  cross-reactivity to sphingosylphosphorylcholine (SPC): binding was somewhat reduced
HUVECs
  effect on S1P-promoted HUVEC migration and BV formation: neutralize these effects of S1P
[2]
  decrease in neovascularization of VEGF-containing plugs vs saline-treated: 5 fold
[2]; 0.5 μg/mL bFGF
  decrease in neovascularization of bFGF-containing plugs vs saline-treated: 8.5 fold
Perivascular fibrosis
  perivascular fibrosis after MI: almost complete abrogation of perivascular fibrosis
[3]
  reduction of S1P-induced IL-8 release: reduced IL-8 release from ovarian cancer cells in a concentration-dependent manner
